Blank lines part the entries; values can stand above or below the binder they belong to.
What was measured:
[1] = target: DLL3 endogenously expressed on NCI-H82 cells (UniProt Q9NYJ7); assay: FACS on NCI-H82 cells; antibody 20 nM
[2] = target: human DLL3 protein expressed on CHO-K1 recombinant cells (human DLL3 extracellular segment fused to EpCAM transmembrane and intracellular regions) (human) (UniProt Q9NYJ7); assay: FACS, CHO-K1 hDLL3 cells, 0.00128 nM antibody
[3] = target: DLL3 endogenously expressed on NCI-H82 cells (UniProt Q9NYJ7); assay: FACS on NCI-H82 cells; antibody 4 nM
[4] = target: mouse DLL3 on CHO-K1-mDLL3 cells (mouse) (UniProt O88516); assay: FACS, CHO-K1-mDLL3 cells, 20 nM antibody
Chain of mouse DLL3 on CHO-K1-mDLL3 cells (mouse) (O88516 other isoform, or with tags, fused parts or gaps limits assumed): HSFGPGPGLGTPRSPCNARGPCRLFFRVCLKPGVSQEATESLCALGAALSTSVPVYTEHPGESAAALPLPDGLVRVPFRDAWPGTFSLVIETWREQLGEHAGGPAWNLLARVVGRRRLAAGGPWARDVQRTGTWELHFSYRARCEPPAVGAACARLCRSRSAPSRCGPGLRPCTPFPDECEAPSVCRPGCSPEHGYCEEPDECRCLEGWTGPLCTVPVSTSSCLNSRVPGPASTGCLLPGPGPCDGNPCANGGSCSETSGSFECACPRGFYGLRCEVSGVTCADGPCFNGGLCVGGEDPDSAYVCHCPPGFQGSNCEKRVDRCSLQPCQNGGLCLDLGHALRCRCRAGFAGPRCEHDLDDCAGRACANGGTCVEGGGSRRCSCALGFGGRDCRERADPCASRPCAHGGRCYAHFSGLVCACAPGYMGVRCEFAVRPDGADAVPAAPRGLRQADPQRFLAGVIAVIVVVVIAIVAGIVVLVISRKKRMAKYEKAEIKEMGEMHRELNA

[5] = target: human delta-like ligand 3 (DLL3) on SHP77 cells (human) (UniProt Q9NYJ7); assay: FACS on SHP77 cells
Chain of human delta-like ligand 3 (DLL3) on SHP77 cells (human) (Q9NYJ7 27-618, stated change not applied): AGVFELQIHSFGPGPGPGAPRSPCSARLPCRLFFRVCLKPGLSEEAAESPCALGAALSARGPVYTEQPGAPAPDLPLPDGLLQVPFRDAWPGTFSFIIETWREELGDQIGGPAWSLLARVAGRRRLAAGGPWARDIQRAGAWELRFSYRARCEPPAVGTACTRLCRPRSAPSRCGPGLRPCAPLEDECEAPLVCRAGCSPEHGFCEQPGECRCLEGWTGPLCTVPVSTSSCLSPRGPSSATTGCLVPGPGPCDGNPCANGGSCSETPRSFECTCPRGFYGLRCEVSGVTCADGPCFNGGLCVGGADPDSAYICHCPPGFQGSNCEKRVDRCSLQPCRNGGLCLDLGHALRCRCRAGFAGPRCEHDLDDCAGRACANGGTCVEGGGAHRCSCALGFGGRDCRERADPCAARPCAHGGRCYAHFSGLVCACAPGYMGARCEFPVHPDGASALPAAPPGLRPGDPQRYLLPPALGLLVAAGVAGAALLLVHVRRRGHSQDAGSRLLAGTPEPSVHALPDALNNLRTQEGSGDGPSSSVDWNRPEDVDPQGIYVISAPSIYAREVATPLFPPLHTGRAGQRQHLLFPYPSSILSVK

[6] = target: mouse DLL3 on CHO-K1-mDLL3 cells (mouse) (UniProt O88516); assay: FACS, CHO-K1-mDLL3 cells, 0.16 nM antibody
[7] = target: mouse DLL3 on CHO-K1-mDLL3 cells (mouse) (UniProt O88516); assay: FACS, CHO-K1-mDLL3 cells, 0.032 nM antibody
[8] = target: DLL3 endogenously expressed on NCI-H82 cells (UniProt Q9NYJ7); assay: FACS on NCI-H82 cells; antibody 0.0064 nM
[9] = target: monkey DLL3 on CHO-K1-cyno DLL3 cells (cynomolgus monkey); assay: FACS, CHO-K1-cyno DLL3 cells, 0.032 nM antibody
Chain of monkey DLL3 on CHO-K1-cyno DLL3 cells (cynomolgus monkey) (chain, as listed by the source limits assumed): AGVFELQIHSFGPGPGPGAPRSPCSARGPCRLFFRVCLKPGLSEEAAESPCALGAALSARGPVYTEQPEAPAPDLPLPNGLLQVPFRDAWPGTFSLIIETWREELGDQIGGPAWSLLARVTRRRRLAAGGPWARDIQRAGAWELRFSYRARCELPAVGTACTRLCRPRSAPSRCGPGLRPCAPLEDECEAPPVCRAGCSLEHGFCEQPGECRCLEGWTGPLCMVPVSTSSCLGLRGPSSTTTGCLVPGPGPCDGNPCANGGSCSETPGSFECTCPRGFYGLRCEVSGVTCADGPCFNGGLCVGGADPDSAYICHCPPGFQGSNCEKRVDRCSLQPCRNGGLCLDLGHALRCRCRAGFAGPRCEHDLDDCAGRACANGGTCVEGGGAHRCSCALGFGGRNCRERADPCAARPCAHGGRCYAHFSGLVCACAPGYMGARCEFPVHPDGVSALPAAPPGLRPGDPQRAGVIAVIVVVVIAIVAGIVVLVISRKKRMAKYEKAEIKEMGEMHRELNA

[10] = target: mouse DLL3 on CHO-K1-mDLL3 cells (mouse) (UniProt O88516); assay: FACS, CHO-K1-mDLL3 cells, 4 nM antibody
[11] = target: human DLL3 protein expressed on CHO-K1 recombinant cells (human DLL3 extracellular segment fused to EpCAM transmembrane and intracellular regions) (human) (UniProt Q9NYJ7); assay: FACS, CHO-K1 hDLL3 cells, 0.0064 nM antibody
[12] = target: monkey DLL3 on CHO-K1-cyno DLL3 cells (cynomolgus monkey); assay: FACS, CHO-K1-cyno DLL3 cells, 0.00128 nM antibody
[13] = target: human DLL1 protein (Acro, Cat. No. DL1-H52H8) (human) (UniProt O00548); assay: ELISA, coated hDLL1; maximum over 0.1, 1, 10, 100 nM antibody
Chain of human DLL1 protein (Acro, Cat. No. DL1-H52H8) (human) (O00548 18-540 limits assumed): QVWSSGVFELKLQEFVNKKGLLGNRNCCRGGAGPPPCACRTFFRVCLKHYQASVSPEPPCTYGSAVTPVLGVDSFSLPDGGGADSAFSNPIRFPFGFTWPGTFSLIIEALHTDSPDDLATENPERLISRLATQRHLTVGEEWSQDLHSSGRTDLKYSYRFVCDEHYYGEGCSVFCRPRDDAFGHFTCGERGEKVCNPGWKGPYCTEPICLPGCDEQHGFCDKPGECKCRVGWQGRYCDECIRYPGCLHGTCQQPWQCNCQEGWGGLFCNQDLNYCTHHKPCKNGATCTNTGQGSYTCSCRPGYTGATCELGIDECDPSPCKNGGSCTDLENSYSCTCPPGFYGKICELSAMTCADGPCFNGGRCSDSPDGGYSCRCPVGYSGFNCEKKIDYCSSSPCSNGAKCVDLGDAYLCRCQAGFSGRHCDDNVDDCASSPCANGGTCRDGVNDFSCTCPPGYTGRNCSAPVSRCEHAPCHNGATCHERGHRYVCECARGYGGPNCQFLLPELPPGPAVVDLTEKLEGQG

[14] = target: DLL3 endogenously expressed on NCI-H82 cells (UniProt Q9NYJ7); assay: FACS on NCI-H82 cells; antibody 0.00128 nM
[15] = target: DLL3 endogenously expressed on NCI-H82 cells (UniProt Q9NYJ7); assay: FACS on NCI-H82 cells; antibody 0.032 nM
[16] = target: monkey DLL3 on CHO-K1-cyno DLL3 cells (cynomolgus monkey); assay: FACS, CHO-K1-cyno DLL3 cells, 0.0064 nM antibody
[17] = target: human DLL3 protein expressed on CHO-K1 recombinant cells (human DLL3 extracellular segment fused to EpCAM transmembrane and intracellular regions) (human) (UniProt Q9NYJ7); assay: FACS, CHO-K1 hDLL3 cells, 4 nM antibody
[18] = target: human DLL3 protein expressed on CHO-K1 recombinant cells (human DLL3 extracellular segment fused to EpCAM transmembrane and intracellular regions) (human) (UniProt Q9NYJ7); assay: FACS, CHO-K1 hDLL3 cells, 0.8 nM antibody
[19] = target: monkey DLL3 on CHO-K1-cyno DLL3 cells (cynomolgus monkey); assay: FACS, CHO-K1-cyno DLL3 cells, 0.8 nM antibody
[20] = target: mouse DLL3 on CHO-K1-mDLL3 cells (mouse) (UniProt O88516); assay: FACS, CHO-K1-mDLL3 cells, 0.00128 nM antibody
[21] = target: monkey DLL3 on CHO-K1-cyno DLL3 cells (cynomolgus monkey); assay: FACS, CHO-K1-cyno DLL3 cells, 100 nM antibody
[22] = target: human DLL3 protein expressed on CHO-K1 recombinant cells (human DLL3 extracellular segment fused to EpCAM transmembrane and intracellular regions) (human) (UniProt Q9NYJ7); assay: FACS, CHO-K1 hDLL3 cells, 0.032 nM antibody
[23] = target: mouse DLL3 on CHO-K1-mDLL3 cells (mouse) (UniProt O88516); assay: FACS, CHO-K1-mDLL3 cells, 0.8 nM antibody
[24] = target: DLL3 endogenously expressed on NCI-H82 cells (UniProt Q9NYJ7); assay: FACS on NCI-H82 cells; antibody 0.16 nM
[25] = target: human DLL3 protein expressed on CHO-K1 recombinant cells (human DLL3 extracellular segment fused to EpCAM transmembrane and intracellular regions) (human) (UniProt Q9NYJ7); assay: FACS, CHO-K1 hDLL3 cells, 100 nM antibody
[26] = target: monkey DLL3 on CHO-K1-cyno DLL3 cells (cynomolgus monkey); assay: FACS, CHO-K1-cyno DLL3 cells, 20 nM antibody
[27] = target: DLL3 endogenously expressed on NCI-H82 cells (UniProt Q9NYJ7); assay: FACS on NCI-H82 cells; antibody 100 nM
[28] = target: mouse DLL3 on CHO-K1-mDLL3 cells (mouse) (UniProt O88516); assay: FACS, CHO-K1-mDLL3 cells, 0.0064 nM antibody
[29] = target: human DLL3 protein expressed on CHO-K1 recombinant cells (human DLL3 extracellular segment fused to EpCAM transmembrane and intracellular regions) (human) (UniProt Q9NYJ7); assay: FACS, CHO-K1 hDLL3 cells, 0.16 nM antibody
[30] = target: monkey DLL3 on CHO-K1-cyno DLL3 cells (cynomolgus monkey); assay: FACS, CHO-K1-cyno DLL3 cells, 4 nM antibody
[31] = target: monkey DLL3 on CHO-K1-cyno DLL3 cells (cynomolgus monkey); assay: FACS, CHO-K1-cyno DLL3 cells, 0.16 nM antibody
[32] = target: human DLL3 protein expressed on CHO-K1 recombinant cells (human DLL3 extracellular segment fused to EpCAM transmembrane and intracellular regions) (human) (UniProt Q9NYJ7); assay: FACS, CHO-K1 hDLL3 cells, 20 nM antibody
[33] = target: DLL3 endogenously expressed on NCI-H82 cells (UniProt Q9NYJ7); assay: FACS on NCI-H82 cells; antibody 0.8 nM
[34] = target: mouse DLL3 on CHO-K1-mDLL3 cells (mouse) (UniProt O88516); assay: FACS, CHO-K1-mDLL3 cells, 100 nM antibody
[35] = target: human DLL4 protein (Acro, Cat. No. DL4-H5227) (human) (UniProt Q9NR61); assay: ELISA, coated hDLL4; maximum over 0.1, 1, 10, 100 nM antibody
Chain of human DLL4 protein (Acro, Cat. No. DL4-H5227) (human) (Q9NR61 27-524 limits assumed): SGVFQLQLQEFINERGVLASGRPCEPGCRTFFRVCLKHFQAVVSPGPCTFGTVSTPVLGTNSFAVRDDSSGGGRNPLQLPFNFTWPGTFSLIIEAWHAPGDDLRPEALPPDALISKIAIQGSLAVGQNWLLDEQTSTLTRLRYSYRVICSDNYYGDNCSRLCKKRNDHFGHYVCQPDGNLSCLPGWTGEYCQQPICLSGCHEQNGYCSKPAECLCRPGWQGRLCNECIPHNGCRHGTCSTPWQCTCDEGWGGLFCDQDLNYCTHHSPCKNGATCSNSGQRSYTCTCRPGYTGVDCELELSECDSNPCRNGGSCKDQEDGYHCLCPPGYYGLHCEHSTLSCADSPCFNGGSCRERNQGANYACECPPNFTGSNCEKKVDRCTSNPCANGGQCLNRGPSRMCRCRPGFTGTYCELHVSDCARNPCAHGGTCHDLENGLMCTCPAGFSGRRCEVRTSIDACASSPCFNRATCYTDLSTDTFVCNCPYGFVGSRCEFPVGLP

[36] = target: human DLL3 protein (extracellular segment, His tag) (human) (UniProt Q9NYJ7); assay: SPR (Biacore 8K), antibody captured on Protein A chip, DLL3 antigen in solution, 1:1 Langmuir fit
Chain of human DLL3 protein (extracellular segment, His tag) (human) (Q9NYJ7 27-492): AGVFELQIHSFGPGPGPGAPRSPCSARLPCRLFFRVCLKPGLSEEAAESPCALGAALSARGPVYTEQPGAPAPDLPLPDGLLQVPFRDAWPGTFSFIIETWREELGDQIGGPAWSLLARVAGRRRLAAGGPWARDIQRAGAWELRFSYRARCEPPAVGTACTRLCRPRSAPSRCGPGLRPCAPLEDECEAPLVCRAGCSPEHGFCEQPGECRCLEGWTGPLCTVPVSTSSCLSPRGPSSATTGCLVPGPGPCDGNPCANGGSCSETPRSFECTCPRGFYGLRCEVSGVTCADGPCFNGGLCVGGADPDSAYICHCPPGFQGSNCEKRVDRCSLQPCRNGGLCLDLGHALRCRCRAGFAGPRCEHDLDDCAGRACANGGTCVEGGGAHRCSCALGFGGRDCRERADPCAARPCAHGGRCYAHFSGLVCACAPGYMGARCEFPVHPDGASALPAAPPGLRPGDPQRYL

Chain of DLL3 endogenously expressed on NCI-H82 cells (Q9NYJ7 27-618): as the sequence (Q9NYJ7 27-618, stated change not applied) above
Chain of human DLL3 protein expressed on CHO-K1 recombinant cells (human DLL3 extracellular segment fused to EpCAM transmembrane and intracellular regions) (human) (Q9NYJ7 other isoform, or with tags, fused parts or gaps limits assumed): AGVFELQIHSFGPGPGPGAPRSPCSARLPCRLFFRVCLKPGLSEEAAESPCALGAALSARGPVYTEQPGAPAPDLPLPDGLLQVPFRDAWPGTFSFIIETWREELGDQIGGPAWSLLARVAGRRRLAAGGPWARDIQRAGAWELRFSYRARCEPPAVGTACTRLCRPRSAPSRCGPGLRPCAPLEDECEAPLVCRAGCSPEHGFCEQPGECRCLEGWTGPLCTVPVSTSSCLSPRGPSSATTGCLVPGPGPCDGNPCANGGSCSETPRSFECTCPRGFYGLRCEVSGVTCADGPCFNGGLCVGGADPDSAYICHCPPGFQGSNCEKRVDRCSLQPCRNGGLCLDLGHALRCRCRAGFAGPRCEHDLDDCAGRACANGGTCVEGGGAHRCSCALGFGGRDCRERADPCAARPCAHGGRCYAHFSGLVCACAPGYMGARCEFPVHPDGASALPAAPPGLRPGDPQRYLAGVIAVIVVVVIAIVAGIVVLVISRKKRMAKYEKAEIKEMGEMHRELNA

- MFI [1]: 1200
- MFI [2]: 122 MFI
- MFI [3]: 1060
- MFI [4]: 1150 MFI
- MFI at 0.00128 nM [5]: 99 MFI
- MFI at 0.0064 nM [5]: 112 MFI
- MFI at 0.032 nM [5]: 174 MFI
- MFI at 0.16 nM [5]: 385 MFI
- MFI at 0.8 nM [5]: 730 MFI
- MFI at 4 nM [5]: 762 MFI
- MFI at 20 nM [5]: 962 MFI
- MFI at 100 nM [5]: 1240 MFI
- MFI [6]: 339 MFI
- MFI [7]: 172 MFI
- MFI [8]: 137
- MFI [9]: 399 MFI
- MFI [10]: 1040 MFI
- MFI [11]: 152 MFI
- MFI [12]: 123 MFI
- Emax of OD450 nm binding value [13]: 0.44 OD450 nm
- MFI [14]: 118
- MFI [15]: 213
- MFI [16]: 168 MFI
- MFI [17]: 7920 MFI
- MFI [18]: 5070 MFI
- MFI [19]: 4470 MFI
- MFI [20]: 117 MFI
- MFI [21]: 7590 MFI
- MFI [22]: 294 MFI
- MFI [23]: 779 MFI
- MFI [24]: 489
- MFI [25]: 11400 MFI
- MFI [26]: 6720 MFI
- MFI [27]: 1520
- MFI [28]: 123 MFI
- MFI [29]: 941 MFI
- MFI [30]: 5910 MFI
- MFI [31]: 1240 MFI
- MFI [32]: 10600 MFI
- MFI [33]: 993
- MFI [34]: 1450 MFI
- Emax of OD450 nm binding value [35]: 0.65 OD450 nm
B1: Hab015VL4VH1a-hFc (scFv, part only; not given: scFv linker and human IgG1 Fc, V domains shown, not shown: another chain or arm of the molecule; a dimerising Fc or GST; small tags and cut ends)
VL: NIVLTQSPATLSLSPGERATLSCKASENVGTYVSWFQQKPGQSPRLLIYGASNRYTGIPARFSGSGSGTDFTLTISSLEPEDFAVYYCGQFYSFPSTFGGGTKVEIK
VH: EVQLVESGGGLVKPGGSLRLSCAASGITFSNFWMNWVRQAPGKGLEWVGQIRLKSDDYATHYAESVKGRFTISREDSKNTVYLQMNSLKTEDTAVYYCTTGYYFDYWGQGTTVTVSS

- MFI [2]: 210 MFI
- MFI [4]: 398 MFI
- MFI at 0.00128 nM [5]: 108 MFI
- MFI at 0.0064 nM [5]: 128 MFI
- MFI at 0.032 nM [5]: 201 MFI
- MFI at 0.16 nM [5]: 432 MFI
- MFI at 0.8 nM [5]: 683 MFI
- MFI at 4 nM [5]: 784 MFI
- MFI at 20 nM [5]: 825 MFI
- MFI at 100 nM [5]: 929 MFI
- MFI [6]: 300 MFI
- MFI [7]: 272 MFI
- MFI [9]: 5450 MFI
- MFI [10]: 358 MFI
- MFI [11]: 476 MFI
- MFI [12]: 1340 MFI
- Emax of OD450 nm binding value [13]: 0.07 OD450 nm
- Kd [36]: 328 pM
- koff [36]: 0.0019 s⁻¹
- kon [36]: 5.79e+06 M⁻¹ s⁻¹
- MFI [16]: 3160 MFI
- MFI [17]: 12700 MFI
- MFI [18]: 12000 MFI
- MFI [19]: 24300 MFI
- MFI [20]: 172 MFI
- MFI [21]: 28400 MFI
- MFI [22]: 1610 MFI
- MFI [23]: 338 MFI
- MFI [25]: 13100 MFI
- MFI [26]: 28200 MFI
- MFI [28]: 238 MFI
- MFI [29]: 5930 MFI
- MFI [30]: 27600 MFI
- MFI [31]: 13700 MFI
- MFI [32]: 12600 MFI
- MFI [34]: 438 MFI
- Emax of OD450 nm binding value [35]: 0.06 OD450 nm
B2: Hab009VL2aVH1-hFc (scFv, part only; not given: VL-VH linker and human IgG1 Fc, V domains shown, not shown: another chain or arm of the molecule; a dimerising Fc or GST; small tags and cut ends)
VL: DIVMTQSPLSLPVTPGEPASISCRASQTISDYLHWYLQKPGQSPRLLIKYASQSISGVPDRFSGSGSGTDFTLKISRVEAEDVGVYYCQQGHSFPLTFGQGTKLEIK
VH: EVQLVQSGAEVKKPGASVKVSCKASGYTFTSYWMHWVRQAPGQRLEWMGTIYPGNSDTRYNQKFKDRVTITADTSASTAYMELSSLRSEDTAVYYCTRSYDYGDLDYWGQGTTVTVSS

— patent publication EP4786492A1
